The text below walks through data of paper PMC5853512, “Arabidopsis MKK10-MPK6 mediates red-light-regulated opening of seedling cotyledons through phosphorylation of PIF3” (Journal of Experimental Botany, 2017).

In the assay the target is T1, GST-PIF3 (Arabidopsis thaliana, UniProt O80536 1-524).
T1 construct: coding region with an NdeI site before the first ATG and an XhoI site at its 3' end, NdeI/XhoI fragment cloned into pGEX4T-2; source: E. coli BL21, purified (Glutathione Sepharose 4B)
T1 sequence (looked up): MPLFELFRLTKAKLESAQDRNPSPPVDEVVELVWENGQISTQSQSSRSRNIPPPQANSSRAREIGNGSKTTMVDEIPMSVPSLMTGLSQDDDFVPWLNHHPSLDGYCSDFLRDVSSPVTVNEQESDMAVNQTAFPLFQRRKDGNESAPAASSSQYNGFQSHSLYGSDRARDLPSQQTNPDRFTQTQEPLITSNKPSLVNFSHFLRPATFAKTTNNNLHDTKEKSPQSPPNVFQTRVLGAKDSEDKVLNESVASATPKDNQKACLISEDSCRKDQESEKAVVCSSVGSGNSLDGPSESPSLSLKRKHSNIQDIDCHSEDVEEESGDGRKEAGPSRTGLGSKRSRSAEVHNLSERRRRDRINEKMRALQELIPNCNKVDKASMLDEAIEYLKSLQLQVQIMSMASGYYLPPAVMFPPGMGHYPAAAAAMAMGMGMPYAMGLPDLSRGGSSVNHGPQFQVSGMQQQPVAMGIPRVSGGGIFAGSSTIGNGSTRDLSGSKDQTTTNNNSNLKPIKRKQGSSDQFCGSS
As to the kind of experiment: pull-down; GST or GST-PIF3 bound to Glutathione Sepharose 4B beads, incubated with His-MPK6 in 50 mM Tris-HCl pH 7.5, 100 mM NaCl, 0.02% Triton X-100 at 4 °C for 2 h; immunoblot with anti-GST and anti-His. Particulars: both partners purified.

B1: His-MPK6 (enzyme, Arabidopsis thaliana, UniProt Q39026 1-395, looked up)
chain: MDGGSGQPAADTEMTEAPGGFPAAAPSPQMPGIENIPATLSHGGRFIQYNIFGNIFEVTAKYKPPIMPIGKGAYGIVCSAMNSETNESVAIKKIANAFDNKIDAKRTLREIKLLRHMDHENIVAIRDIIPPPLRNAFNDVYIAYELMDTDLHQIIRSNQALSEEHCQYFLYQILRGLKYIHSANVLHRDLKPSNLLLNANCDLKICDFGLARVTSESDFMTEYVVTRWYRAPELLLNSSDYTAAIDVWSVGCIFMELMDRKPLFPGRDHVHQLRLLMELIGTPSEEELEFLNENAKRYIRQLPPYPRQSITDKFPTVHPLAIDLIEKMLTFDPRRRITVLDALAHPYLNSLHDISDEPECTIPFNFDFENHALSEEQMKELIYREALAFNPEYQQ
notes: coding region amplified from seedling cDNA with an NdeI site before the first ATG, NdeI/SalI fragment cloned into pET28a(+); The NdeI site of pET28a(+) would put the His tag at the N-terminus (surmised); source: E. coli BL21, purified (Ni2+-chelating Sepharose Fast Flow)
On to B1, for which the binding result is recorded as “binds”.
